Data from paper PMC4319933, “Insights into the Cellular Function of YhdE, a Nucleotide Pyrophosphatase from Escherichia coli” (PLoS ONE, 2015).

Legend:
purified protein [1] = substrate: O=c1ccn([C@@H]2O[C@H](COP(=O)(O)OP(=O)(O)OP(=O)(O)O)[C@@H](O)[C@H]2O)c(=O)[nH]1; test: purified protein; type: biochemical, Escherichia coli; settings: 2 mM Mn2+, 20 mM HEPES pH 7.0, 25 °C, 1.5 µM enzyme, apparent Km, Hill coefficient 1.9 (positive cooperativity)
purified protein [2] = substrate: Cc1cn([C@H]2C[C@H](O)[C@@H](COP(=O)(O)OP(=O)(O)OP(=O)(O)O)O2)c(=O)[nH]c1=O; test: purified protein; type: biochemical, Escherichia coli; settings: 2 mM Mn2+, 20 mM HEPES pH 7.0, 25 °C, 1.5 µM enzyme, apparent Km, Hill coefficient 2.2 (positive cooperativity)
[3] = target: the molecule itself; test: SEC; size-exclusion chromatography after Ni2+ chelation; Bis-Tris buffer, pH 6.75; YhdE eluted at approximately 81 mL, approximately 45 kDa

B1: YhdE (Escherichia coli K-12) (protein)
chain: TSLYLASGSPRRQELLAQLGVTFERIVTGIEEQRQPQESAQQYVVRLAREKARAGVAQTAKDLPVLGADTIVILNGEVLEKPRDAEHAAQMLRKLSGQTHQVMTAVALADSQHILDCLVVTDVTFRTLTDEDIAGYVASDEPLDKAGAYGIQGLGGCFVRKINGSYHAVVGLPLVETYELLSNFNALREKRDKHDG
notes: dimer in solution ~45 kDa, monomer ~22 kDa; PDB entries are of the E33A mutant
Km (purified protein [1]): 500 µM
Vmax (purified protein [1]): 8400 µM/min
kcat (purified protein [1]): 95 s⁻¹
kcat/Km (purified protein [1]): 191000 M⁻¹ s⁻¹
Km (purified protein [2]): 90 µM
Vmax (purified protein [2]): 3600 µM/min
kcat (purified protein [2]): 43 s⁻¹
kcat/Km (purified protein [2]): 503000 M⁻¹ s⁻¹

B2: YhdE, a Maf-like protein in Escherichia coli (nucleotide pyrophosphatase) (enzyme, UniProt P25536 1-197, looked up)
chain: MTSLYLASGSPRRQELLAQLGVTFERIVTGIEEQRQPQESAQQYVVRLAREKARAGVAQTAKDLPVLGADTIVILNGEVLEKPRDAEHAAQMLRKLSGQTHQVMTAVALADSQHILDCLVVTDVTFRTLTDEDIAGYVASDEPLDKAGAYGIQGLGGCFVRKINGSYHAVVGLPLVETYELLSNFNALREKRDKHDG
notes: YhdE, Maf-like protein of Escherichia coli; the open reading frame of yhdE cloned into pFO4 (BamHI/EcoRI); also called recombinant YhdE; source: E. coli BL21(DE3), purified (Ni2+ chelation, size-exclusion chromatography)
stoichiometry N [3]: 2
